Data set [1] addresses T1, Rok-C114-185 T156A (Bacillus subtilis subsp. subtilis str. …, UniProt O34857 114-185, T156A).
T1 sequence: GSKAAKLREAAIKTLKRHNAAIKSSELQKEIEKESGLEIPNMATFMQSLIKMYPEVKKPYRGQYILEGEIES
The data set is described as follows: ITC; ITC: sodium phosphate buffer, 200 mM NaCl, pH 6, 277 K, 50 uM protein in cell, 750 uM Seq1 DNA; NMR samples: 50 mM sodium phosphate, 50 mM NaCl, pH 6.0. The following applies: protein: recombinant; tags: C-terminal His6; blunt, self-complementary 18 bp.

Data set [2] addresses T2, Rok-C114-185 R174A (Bacillus subtilis subsp. subtilis str. …, UniProt O34857 114-185, R174A).
T2 sequence: T1 sequence with A43T, R61A
Described as above. The note with it: protein: recombinant; tags: C-terminal His6; blunt, self-complementary 18 bp.

Another data set addresses T3, Rok-C114-185 (Bacillus subtilis subsp. subtilis str. …, UniProt O34857 114-185).
T3 sequence: T1 sequence with A43T
The experiment in a line: ITC; ITC: sodium phosphate buffer, 200 mM NaCl, pH 6, 277 K, 50 uM protein in cell titrated with 750 uM Seq1 DNA; PBM: buffer not stated. The note with it: protein: recombinant; tags: C-terminal His6; blunt, self-complementary 18 bp.

In another data set the target is T4, Rok-C114-185 T157A (Bacillus subtilis subsp. subtilis str. …, UniProt O34857 114-185, T157A).
T4 sequence: T1 sequence with A43T, T44A
The data set is described as above. The following applies: protein: recombinant; tags: C-terminal His6; blunt, self-complementary 18 bp.

Data set [3] addresses T5, Rok-C102-185 (Bacillus subtilis subsp. subtilis str. …, UniProt O34857 102-185).
T5 sequence: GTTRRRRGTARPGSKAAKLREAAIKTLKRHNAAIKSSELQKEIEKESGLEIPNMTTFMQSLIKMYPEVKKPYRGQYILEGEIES
The description is as above. The note with it: protein: recombinant; tags: C-terminal His6; blunt, self-complementary 18 bp.

Data set [4] deals with T1, Rok-C114-185 T156A. The description is as above. The note with it: protein: recombinant; tags: C-terminal His6; blunt, self-complementary 18 bp.
The next data set has as its target T6, Rok-C114-185 K171A (Bacillus subtilis subsp. subtilis str. …, UniProt O34857 114-185, K171A).
T6 sequence: T1 sequence with A43T, K58A
The data set is described as above. The following applies: protein: recombinant; tags: C-terminal His6; blunt, self-complementary 18 bp.

In the next data set the target is T7, Rok-C114-185 K136A (Bacillus subtilis subsp. subtilis str. …, UniProt O34857 114-185, K136A).
T7 sequence: T1 sequence with K23A, A43T
The data set is described as above. The note with it: protein: recombinant; tags: C-terminal His6; blunt, self-complementary 18 bp.

In the next data set the target is T8, Rok-C114-185 K116A (Bacillus subtilis subsp. subtilis str. …, UniProt O34857 114-185, K116A).
T8 sequence: T1 sequence with K3A, A43T
The description is as above. The note with it: protein: recombinant; tags: C-terminal His6; blunt, self-complementary 18 bp.

The next data set deals with T9, Rok-C114-185 K164A (Bacillus subtilis subsp. subtilis str. …, UniProt O34857 114-185, K164A).
T9 sequence: T1 sequence with A43T, K51A
The description is as above. The note with it: protein: recombinant; tags: C-terminal His6; blunt, self-complementary 18 bp.

Data set [5] addresses T2, Rok-C114-185 R174A. The data set is described as above. The note with it: protein: recombinant; tags: C-terminal His6; blunt, self-complementary 18 bp.
Data set [6] deals with the molecule itself. The experiment in a line: SEC; gel filtration on a GE HiLoad 16/600 Superdex 75 preparation grade column; elution volumes compared with cytochrome C (12.4 kD) and the void volume.
The target in data set [7] is T5, Rok-C102-185. The data set is described as follows: NMR HSQC; ITC: sodium phosphate buffer, 200 mM NaCl, pH 6, 277 K, 50 uM protein in cell, 750 uM Seq1 DNA; NMR samples: 50 mM sodium phosphate, 50 mM NaCl, pH 6.0. The following applies: protein: recombinant, tags: C-terminal His6, blunt.
In the next data set the target is T10, Rok-C97-191 (Bacillus subtilis subsp. subtilis str. …, UniProt O34857 97-191).
T10 sequence: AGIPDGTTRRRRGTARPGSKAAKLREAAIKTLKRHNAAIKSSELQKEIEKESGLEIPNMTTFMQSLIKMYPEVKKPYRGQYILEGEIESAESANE
The data set is described as follows: NMR titration; ITC: sodium phosphate buffer, 200 mM NaCl, pH 6, 277 K, 50 uM protein in cell, 750 uM Seq1 DNA; NMR samples: 50 mM sodium phosphate, 50 mM NaCl, pH 6.0. The note with it: protein: recombinant; tags: C-terminal His6; blunt, self-complementary 12 bp.

We go through 5 molecules from paper PMC6212790, “How bacterial xenogeneic silencer rok distinguishes foreign from self DNA in its resident genome” (Nucleic Acids Research, 2018).

Changes are numbered by the printed parent chain.

B1: Seq1 (dsDNA)
DNA 1: CTAATAACTAGTTATTAG
DNA 2: CTAATAACTAGTTATTAG
In the case of B1, the equilibrium dissociation constant (Kd) was 42.9 ± 7.1 µM with Rok-C114-185 T156A [1]; 89 ± 42 µM with Rok-C114-185 R174A [2]; 19.7 ± 2.7 µM in the data set with Rok-C114-185; 15 ± 1.9 µM with Rok-C114-185 T157A; 7.9 ± 1.3 µM with Rok-C102-185 [3]; 42.9 ± 7.1 µM with Rok-C114-185 T156A [4]. Further, the Kd with Rok-C114-185 K171A turned out to be 110 ± 35 µM; with Rok-C114-185 K136A it was 39.4 ± 6.4 µM; in the data set with Rok-C114-185 K116A, 42.9 ± 8.1 µM; with Rok-C114-185 K164A, 30.9 ± 2.9 µM; with Rok-C114-185 R174A [5], 89 ± 42 µM.

B2: Rok (full-length Rok protein, Bacillus subtilis subsp. subtilis str. 168) (natural protein, B. subtilis subsp. subtilis str. 168, UniProt O34857 1-191, looked up)
chain: MFNEREALRLRLEQLNEAEVKVIREYQIERDKIYAKLRELDRNGSPSEIKKDFRSEKKPDSLPVLAELAAQEIRSYQPQSQQQSVQPQLQSISSLPAGIPDGTTRRRRGTARPGSKAAKLREAAIKTLKRHNAAIKSSELQKEIEKESGLEIPNMTTFMQSLIKMYPEVKKPYRGQYILEGEIESAESANE
notes: Rok, xenogeneic silencer of Bacillus subtilis subsp. subtilis str; cloned into pET-21a(+) NdeI/XhoI; size of the higher order oligomer not determined; source: E. coli Rosetta (DE3), purified (Ni-NTA, size exclusion chromatography)
Regarding B2, the binding result in [6] is reported as “binds”.

B3: 3AT (dsDNA)
DNA 1: CGCATATATGCG
DNA 2: CGCATATATGCG
For the molecule B3, the binding result with Rok-C102-185 [7] (self-complementary 12 bp) and in the data set with Rok-C97-191 was “binds” each time.

B4: Rok-N^1-95 (N-terminal domain of Rok, residues 1-95) (domain or fragment, B. subtilis subsp. subtilis str. 168, UniProt O34857 1-95, looked up)
chain: MFNEREALRLRLEQLNEAEVKVIREYQIERDKIYAKLRELDRNGSPSEIKKDFRSEKKPDSLPVLAELAAQEIRSYQPQSQQQSVQPQLQSISSL
notes: Rok of Bacillus subtilis subsp. subtilis str; cloned into pET-21a(+) NdeI/XhoI; source: E. coli Rosetta (DE3), purified (Ni-NTA, size exclusion chromatography)
For the molecule B4, the binding result in data set [6] is on record as “binds”.

B5: 8AT (dsDNA)
DNA 1: CATATATATATATATATG
DNA 2: CATATATATATATATATG
On to B5, for which, in the data set with Rok-C102-185 [7] (self-complementary 18 bp), the binding result is “binds”.
